We go through 8 molecules from paper PMC10036535, “A naturally occurring mini-alanyl-tRNA synthetase”.

In general, Kd refers to the constant that tells how readily two partners part at equilibrium.

Data set [1] relates to TuAlaRS (Tupanvirus (of Acanthamoeba castellanii)). Put plainly: EMSA. Conditions: none (in vitro transcript). (A gel shift assay detects complexes by their altered migration in electrophoresis.)
Data set [2] has as its target T1, EcAlaRS (Escherichia coli, UniProt P00957 1-876).
T1 sequence: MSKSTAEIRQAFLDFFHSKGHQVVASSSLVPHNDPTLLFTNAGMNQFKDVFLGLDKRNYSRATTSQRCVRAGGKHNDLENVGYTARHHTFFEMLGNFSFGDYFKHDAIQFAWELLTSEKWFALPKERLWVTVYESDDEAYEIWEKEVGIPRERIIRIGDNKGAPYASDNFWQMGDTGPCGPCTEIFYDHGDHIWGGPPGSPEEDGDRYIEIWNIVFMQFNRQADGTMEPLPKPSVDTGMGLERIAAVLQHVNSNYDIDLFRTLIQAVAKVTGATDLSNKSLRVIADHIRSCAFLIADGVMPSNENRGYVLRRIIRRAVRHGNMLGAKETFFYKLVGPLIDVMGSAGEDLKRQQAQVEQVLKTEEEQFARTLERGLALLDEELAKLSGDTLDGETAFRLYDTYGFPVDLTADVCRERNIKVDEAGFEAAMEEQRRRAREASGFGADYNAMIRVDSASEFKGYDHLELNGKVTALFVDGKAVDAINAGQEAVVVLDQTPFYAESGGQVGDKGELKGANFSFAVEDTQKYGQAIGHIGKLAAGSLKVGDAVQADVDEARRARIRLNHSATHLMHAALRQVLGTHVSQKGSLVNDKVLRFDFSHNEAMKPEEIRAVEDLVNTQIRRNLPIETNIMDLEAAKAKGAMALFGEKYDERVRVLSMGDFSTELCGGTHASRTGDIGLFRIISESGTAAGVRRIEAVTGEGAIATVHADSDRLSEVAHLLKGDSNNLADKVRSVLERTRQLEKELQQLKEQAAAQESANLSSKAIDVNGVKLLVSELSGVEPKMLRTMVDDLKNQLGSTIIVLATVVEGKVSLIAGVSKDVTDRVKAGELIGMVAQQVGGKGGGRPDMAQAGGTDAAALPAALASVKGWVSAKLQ
Put plainly: EMSA; 5 mM Mg2+; hardly affected vs WT; EMSA: 20 mM HEPES pH 7.5, 20 mM KCl, 5 mM MgCl2, 2 mM DTT, 0.1 µM RNA, 10 min on ice, protein 0.0625-32 µM; 5% native PAGE, 0.5x TBE, 4 °C. The following applies: protein: recombinant; label: 5'-32P; tRNA cloverleaf.

The target of data set [3] is T1, EcAlaRS. The data set is described as follows: EMSA; 5 mM Mg2+; EMSA: 20 mM HEPES pH 7.5, 20 mM KCl, 5 mM MgCl2, 2 mM DTT, 0.1 µM RNA, 10 min on ice, protein 0.0625-32 µM; 5% native PAGE, 0.5x TBE, 4 °C. The following applies: protein: recombinant; label: 5'-32P; tRNA cloverleaf.

“GGAGCUAUAGCUUCUAGCUCCACCA [Ec-microAla A3:U70]” gave a Kd fold increase vs WT (fold increase in Kd vs WT) in data set [1] of 3. Consider GGGAUUUUAGCUUCUAAUUCUACCA [Ce-microAla], for which the Kd in data set [1] is 400 nM. Molecule “GGGGCUAUAGCUCAGCUGGGAGAGCGCCUGCUUUGCAAGCAGGAGGUCUGCGGUUCGAUCCCGCAUAGCUCCACCA [EctRNAAla]” came in with an equilibrium dissociation constant (Kd) in data set [1] of 300 nM. In data set [1], “GGGGCUAUAGCUUCUAGCCCCACCA [Ec-microAla G3:C70]” returned a Kd fold increase vs WT (fold increase in Kd vs WT) of 3. In data set [1], GGGGCUAUAGCUUCUAGCUCCACCA [Ec-microAla] showed a Kd of 300 nM.

B1: EctRNAAla CCA to UUG (structured_RNA)
RNA: GGGGCUAUAGCUCAGCUGGGAGAGCGCCUGCUUUGCAAGCAGGAGGUCUGCGGUUCGAUCCCGCAUAGCUCCAUUG
modifications: none (in vitro transcript)
For B1, the binding result with EcAlaRS [2] is “binds”.

B2: EctRNAAla (structured_RNA)
RNA: GGGGCUAUAGCUCAGCUGGGAGAGCGCCUGCUUUGCAAGCAGGAGGUCUGCGGUUCGAUCCCGCAUAGCUCCACCA
modifications: none (in vitro transcript)
B2: the Kd in the data set with EcAlaRS [3] was 1000 nM.

B3: EctRNAAla delCCA (structured_RNA)
RNA: GGGGCUAUAGCUCAGCUGGGAGAGCGCCUGCUUUGCAAGCAGGAGGUCUGCGGUUCGAUCCCGCAUAGCUCCA
modifications: none (in vitro transcript)
On to B3, for which, in the data set with EcAlaRS [2], the binding result is on record as “binds”.
